# IntAct's records for PubMed 19033468
# B1: E3 ubiquitin-protein ligase UBR1 (Saccharomyces cerevisiae), P19812 (parent)
# chain: MSVADDDLGSLQGHIRRTLRSIHNLPYFRYTRGPTERADMSRALKEFIYRYLYFVISNSGENLPTLFNAHPKQKLSNPELTVFPDSLEDAVDIDKITSQQTIPFYKIDESRIGDVHKHTGRNCGRKFKIGEPLYRCHECGCDDTCVLCIHCFNPKDHVNHHVCTDICTEFTSGICDCGDEEAWNSPLHCKAEEQENDISEDPATNADIKEEDVWNDSVNIALVELVLAEVFDYFIDVFNQNIEPLPTIQKDITIKLREMTQQGKMYERAQFLNDLKYENDYMFDGTTTAKTSPSNSPEASPSLAKIDPENYTVIIYNDEYHNYSQATTALRQGVPDNVHIDLLTSRIDGEGRAMLKCSQDLSSVLGGFFAVQTNGLSATLTSWSEYLHQETCKYIILWITHCLNIPNSSFQTTFRNMMGKTLCSEYLNATECRDMTPVVEKYFSNKFDKNDPYRYIDLSILADGNQIPLGHHKILPESSTHSLSPLINDVETPTSRTYSNTRLQHILYFDNRYWKRLRKDIQNVIIPTLASSNLYKPIFCQQVVEIFNHITRSVAYMDREPQLTAIRECVVQLFTCPTNAKNIFENQSFLDIVWSIIDIFKEFCKVEGGVLIWQRVQKSNLTKSYSISFKQGLYTVETLLSKVHDPNIPLRPKEIISLLTLCKLFNGAWKIKRKEGEHVLHEDQNFISYLEYTTSIYSIIQTAEKVSEKSKDSIDSKLFLNAIRIISSFLGNRSLTYKLIYDSHEVIKFSVSHERVAFMNPLQTMLSFLIEKVSLKDAYEALEDCSDFLKISDFSLRSVVLCSQIDVGFWVRNGMSVLHQASYYKNNPELGSYSRDIHLNQLAILWERDDIPRIIYNILDRWELLDWFTGEVDYQHTVYEDKISFIIQQFIAFIYQILTERQYFKTFSSLKDRRMDQIKNSIIYNLYMKPLSYSKLLRSVPDYLTEDTTEFDEALEEVSVFVEPKGLADNGVFKLKASLYAKVDPLKLLNLENEFESSATIIKSHLAKDKDEIAKVVLIPQVSIKQLDKDALNLGAFTRNTVFAKVVYKLLQVCLDMEDSTFLNELLHLVHGIFRDDELINGKDSIPEAYLSKPICNLLLSIANAKSDVFSESIVRKADYLLEKMIMKKPNELFESLIASFGNQYVNDYKDKKLRQGVNLQETEKERKRRLAKKHQARLLAKFNNQQTKFMKEHESEFDEQDNDVDMVGEKVYESEDFTCALCQDSSSTDFFVIPAYHDHSPIFRPGNIFNPNEFMPMWDGFYNDDEKQAYIDDDVLEALKENGSCGSRKVFVSCNHHIHHNCFKRYVQKKRFSSNAFICPLCQTFSNCTLPLCQTSKANTGLSLDMFLESELSLDTLSRLFKPFTEENYRTINSIFSLMISQCQGFDKAVRKRANFSHKDVSLILSVHWANTISMLEIASRLEKPYSISFFRSREQKYKTLKNILVCIMLFTFVIGKPSMEFEPYPQQPDTVWNQNQLFQYIVRSALFSPVSLRQTVTEALTTFSRQFLRDFLQGLSDAEQVTKLYAKASKIGDVLKVSEQMLFALRTISDVRMEGLDSESIIYDLAYTFLLKSLLPTIRRCLVFIKVLHELVKDSENETLVINGHEVEEELEFEDTAEFVNKALKMITEKESLVDLLTTQESIVSHPYLENIPYEYCGIIKLIDLSKYLNTYVTQSKEIKLREERSQHMKNADNRLDFKICLTCGVKVHLRADRHEMTKHLNKNCFKPFGAFLMPNSSEVCLHLTQPPSNIFISAPYLNSHGEVGRNAMRRGDLTTLNLKRYEHLNRLWINNEIPGYISRVMGDEFRVTILSNGFLFAFNREPRPRRIPPTDEDDEDMEEGEDGFFTEGNDEMDVDDETGQAANLFGVGAEGIAGGGVRDFFQFFENFRNTLQPQGNGDDDAPQNPPPILQFLGPQFDGATIIRNTNPRNLDEDDSDDNDDSDEREIW
# partner: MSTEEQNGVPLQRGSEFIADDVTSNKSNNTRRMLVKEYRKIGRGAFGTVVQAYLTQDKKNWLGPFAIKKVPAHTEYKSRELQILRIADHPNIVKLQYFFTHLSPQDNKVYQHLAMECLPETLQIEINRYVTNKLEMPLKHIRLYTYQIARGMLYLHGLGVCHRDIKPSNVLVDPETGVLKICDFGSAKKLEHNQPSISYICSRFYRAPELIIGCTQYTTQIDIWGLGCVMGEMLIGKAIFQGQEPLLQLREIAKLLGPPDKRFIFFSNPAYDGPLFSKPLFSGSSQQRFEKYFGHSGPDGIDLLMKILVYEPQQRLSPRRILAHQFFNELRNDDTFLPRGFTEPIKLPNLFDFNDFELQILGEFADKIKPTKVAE
# B2: Protein kinase MCK1 (Saccharomyces cerevisiae), P21965 (parent)
# chain: B1 partner
# Variants of: B1
# Details: with mck1_yeast MCK1, P21965
row,Variant,effect of a mutation on the interaction
1,Y277F,disrupting interaction

# Variants of: B2
# Details: with ubr1_yeast UBR1, P19812
row,Variant,effect of a mutation on the interaction
1,MSTEEQNGVPLQRGSEFIADDVTSNKSNNTRRMLVKEYRKIGRGAFGTVVQAYLTQDKKNWLGPFAIKKVPAHTEYKSRELQILRIADHPNIVKLQYFFTHLSPQDNKVYQHLAMECLPETLQIEINRYVTNKLEMPLKHIRLYTYQIARGMLYLHGLGVCHRAIKPSNVLVDPETGVLKICDFGSAKKLEHNQPSISYICSRFYRAPELIIGCTQYTTQIDIWGLGCVMGEMLIGKAIFQGQEPLLQLREIAKLLGPPDKRFIFFSNPAYDGPLFSKPLFSGSSQQRFEKYFGHSGPDGIDLLMKILVYEPQQRLSPRRILAHQFFNELRNDDTFLPRGFTEPIKLPNLFDFNDFELQILGEFADKIKPTKVAE [D164A],disrupting interaction
